B1: g1 2'-F (ssRNA)
RNA: GGGACGCUCACGUACGCUAAACACACUGAGAGUUUGACCAGCUAUUAAAUGGGUCGUGACUCAGUGCCUGGACGUGCAGU
modifications: 2'-F on all C and U
B2: g2 2'-F (ssRNA)
RNA: GGGACGCUCACGUACGCUAAACCCUGGCGAUCUCCGGCCGGAUACGGGAGAACGAGGUACUCAGUGCCUGGACGUGCAGU
modifications: 2'-F on all C and U
B3: g3 2'-F (ssRNA)
RNA: GGGACGCUCACGUACGCUAAGGGCGAAACUGUCGUGACACGGUUUGACAUGCCGGCCUUAUCAGUGCCUGGACGUGCAGU
modifications: 2'-F on all C and U
B4: g4 2'-F (ssRNA)
RNA: GGGACGCUCACGUACGCUAAUACCGUGAUUCGGGGUGGUAUCCGGUGGACAUCCAGGUCGUCAGUGCCUGGACGUGCAGU
modifications: 2'-F on all C and U
B5: g5 2'-F (ssRNA)
RNA: GGGACGCUCACGUACGCUAAGCCCAACGAACAUUUUGAGUUUCCAGGCAGCUCAUAGACAUCAGUGCCUGGACGUGCAGU
modifications: 2'-F on all C and U
B6: g6 2'-F (ssRNA)
RNA: GGGACGCUCACGUACGCUAAUCCAGGUGUGGCGAGCCACUGUAAGAGUCGCCGUGAGGAUUCAGUGCCUGGACGUGCAGU
modifications: 2'-F on all C and U
B7: g7 2'-F (ssRNA)
RNA: GGGACGCUCACGUACGCUAACUUGAAGUCAAGGGUAGAGUGACCAUGCAGCUCGUAGACAUCAGUGCCUGGACGUGCAGU
modifications: 2'-F on all C and U
B8: g8 2'-F (ssRNA)
RNA: GGGACGCUCACGUACGCUAAGGGCACUUAAAACCAGACCGUGAUUUGCGGUUGGUCUCGCUCAGUGCCUGGACGUGCAGU
modifications: 2'-F on all C and U
B9: g9 2'-F (ssRNA)
RNA: GGGACGCUCACGUACGCUAAGAUGUCUCAAUUGGUCGUGAUUGUGCUGACCACACGAACCUCAGUGCCUGGACGUGCAGU
modifications: 2'-F on all C and U
B10: g10 2'-F (ssRNA)
RNA: GGGACGCUCACGUACGCUAAACACAGCUCUGAUGGUCGUGAUUAGGUUGACCACCUACCUUCAGUGCCUGGACGUGCAGU
modifications: 2'-F on all C and U
B11: g11 2'-F (ssRNA)
RNA: GGGACGCUCACGUACGCUAAGUUUAGGUGGCAUCGACCUUCAUGAAACGGGUGCACAGGCUCAGUGCCUGGACGUGCAGU
modifications: 2'-F on all C and U
B12: g12 2'-F (ssRNA)
RNA: GGGACGCUCACGUACGCUAACGCGGCCAUCCGGCGUUUGGAACGGGAUGUACACCUGACAUCAGUGCCUGGACGUGCAGU
modifications: 2'-F on all C and U
B13: g13 2'-F (ssRNA)
RNA: GGGACGCUCACGUACGCUAAUCACUCGGACAGCCGGAGCGAAACGGGCUGUGUAAGACUGUCAGUGCCUGGACGUGCAGU
modifications: 2'-F on all C and U
B14: g14 2'-F (ssRNA)
RNA: GGGACGCUCACGUACGCUAAUCAUCGGGACAUCGGAUGGAACGGGUGUCAAGAAGCGUGUUCAGUGCCUGGACGUGCAGU
modifications: 2'-F on all C and U
B15: g15 2'-F (ssRNA)
RNA: GGGACGCUCACGUACGCUAAGACGCGGGCCACCGGCUAGCGACGGGUGGUAAAGGGCUUGUCAGUGCCUGGACGUGCAGU
modifications: 2'-F on all C and U
B16: g16 2'-F (ssRNA)
RNA: GGGACGCUCACGUACGCUAACCGCUACCGGGUGCAACGGGUAGACUGUAACCAGGUGAUAUCAGUGCCUGGACGUGCAGU
modifications: 2'-F on all C and U
B17: g17 2'-F (ssRNA)
RNA: GGGACGCUCACGUACGCUAAAGUGAUGGCCGGCUGGAGAAACGGGCCACUCGAUCCAGGUCAGUGCCUGGACGUGCAGU
modifications: 2'-F on all C and U
B18: g18 2'-F (ssRNA)
RNA: GGGACGCUCACGUACGCUAAGGCACCCUAUAGGAUUCAGCCCCUAACCCGGUGUUGUGAAUCAGUGCCUGGACGUGCAGU
modifications: 2'-F on all C and U
B19: g19 2'-F (ssRNA)
RNA: GGGACGCUCACGUACGCUAAGUAGCCGUGAUUGGGUUGGCUGCCCACAAUUAUCCAGGACUCAGUGCCUGGACGUGCAGU
modifications: 2'-F on all C and U
B20: g20 2'-F (ssRNA)
RNA: GGGACGCUCACGUACGCUAAACGUUGUGGCGAACUUCGGCCCGAACGGGAGUAACUGCAUCAGUGCCUGGACGUGCAGU
modifications: 2'-F on all C and U
B21: g21 2'-F (ssRNA)
RNA: GGGACGCUCACGUACGCUAACCUUGGUGUCAUCCGACCAAAUUAGAACGGGAUGAGGAAGUCAGUGCCUGGACGUGCAGU
modifications: 2'-F on all C and U
B22: g22 2'-F (ssRNA)
RNA: GGGACGCUCACGUACGCUAAGCGUGUUUCUUCAUUUCGACGCUGGCCAACGGAAAUGCAAUCAGUGCCUGGACGUGCAGU
modifications: 2'-F on all C and U
B23: g23 2'-F (ssRNA)
RNA: GGGACGCUCACGUACGCUAAAUGGGAGUGCGCCUCGGCUCUAACGGAGGUAUGCACGUCAUCAGUGCCUGGACGUGCAGU
modifications: 2'-F on all C and U
B24: g24 2'-F (ssRNA)
RNA: GGGACGCUCACGUACGCUAAGAGUUGUCGCACAGCGACUCGAAAAUAAUCUGUCCGACACUCAGUGCCUGGACGUGCAGU
modifications: 2'-F on all C and U
B25: g26 2'-F (ssRNA)
RNA: GGGACGCUCACGUACGCUAAGCUCCACCAGGUGUAGCUAGCCUGUAGACAUCAGUAGCAUCAGUGCCUGGACGUGCAGU
modifications: 2'-F on all C and U
B26: g27 2'-F (ssRNA)
RNA: GGGACGCUCACGUACGCUAACCUAUGCAGACCGACAUCCGGGUAUACGGGAUGAUGCGACUCAGUGCCUGGACGUGCAGU
modifications: 2'-F on all C and U
B27: g28 2'-F (ssRNA)
RNA: GGGACGCUCACGUACGCUAACCUGGGGGUUCCGCAGGAAUCGGGAACUAGAUUGGUGGUCUCAGUGCCUGGACGUGCAGU
modifications: 2'-F on all C and U
B28: g30 2'-F (ssRNA)
RNA: GGGACGCUCACGUACGCUAAAAAUUGCCGGGAUCUGGUGUGGCGACCAUGCGGCGUGCAUUCAGUGCCUGGACGUGCAGU
modifications: 2'-F on all C and U
B29: g31 2'-F (ssRNA)
RNA: GGGACGCUCACGUACGCUAAAGAGUCUAUGCCGUGAGUGAGGGUGGCGCCUCGACUGCCAUCAGUGCCUGGACGUGCAGU
modifications: 2'-F on all C and U
B30: g32 2'-F (ssRNA)
RNA: GGGACGCUCACGUACGCUAAACAAGACCGGGAUGGGGGUUGGUCACACACAAAGACUGAAUCAGUGCCUGGACGUGCAGU
modifications: 2'-F on all C and U
B31: g33 2'-F (ssRNA)
RNA: GGGACGCUCACGUACGCUAAACUUUUGGCGAUCUCCGGCCGGAUACGGGAGAACGAGGUAUCAGUGCCUGGACGUGCAGU
modifications: 2'-F on all C and U
B32: g34 2'-F (ssRNA)
RNA: GGGACGCUCACGUACGCUAAUUUGGUGAAUUCCGACCAUUUUGCAAACGGGAUACGGGACUCAGUGCCUGGACGUGCAGU
modifications: 2'-F on all C and U
B33: g35 2'-F (ssRNA)
RNA: GGGACGCUCACGUACGCUAAGAUUUGUGUGAUACCCGACACUCUAACGGGGUAGCAGGGCUCAGUGCCUGGACGUGCAGU
modifications: 2'-F on all C and U
B34: g36 2'-F (ssRNA)
RNA: GGGACGCUCACGUACGCUAACUUGAUUGGUCGCAACCGGACAAGGACGGGUUGAUGCAGUUCAGUGCCUGGACGUGCAGU
modifications: 2'-F on all C and U
B35: g37 2'-F (ssRNA)
RNA: GGGACGCUCACGUACGCUAAGGUUUGCUCCGACCGACUAAAGGGAGCCUCUGUCACGAGUUCAGUGCCUGGACGUGCAGU
modifications: 2'-F on all C and U
B36: g10 (ssRNA)
RNA: GGGACGCUCACGUACGCUAAACACAGCUCUGAUGGUCGUGAUUAGGUUGACCACCUACCUUCAGUGCCUGGACGUGCAGU
B37: g11 (ssRNA)
RNA: GGGACGCUCACGUACGCUAAGUUUAGGUGGCAUCGACCUUCAUGAAACGGGUGCACAGGCUCAGUGCCUGGACGUGCAGU

molecular target: T1, rec-cMet (Recombinant Human HGF R/c-MET/Fc Chimera) (Homo sapiens, UniProt P08581;P08581 SEQ:1-283,SEQ:1-625); assay: SPR; rec-cMet 60 nM; details: tags: C-terminal HIEGRMD linker, human IgG Fc (100-330), 6xHis; R&D Systems; chain copies: 2 (inferred, Fc chimera)
Description: (§1) Using these truncated RNA aptamers, the binding ability thereof to the rec-cMet was examined. The binding ability was analyzed using BIACORE (registered trademark) X (GE Healthcare) in accordance with its instructions for use, with the concentration of the rec-cMet being set to 175 nmol/L. Also, the binding ability of each of the RNA aptamers g1 and g1-trA was examined in the same manner. As a comparative example, the 40N was used, and the binding ability thereof was examined in the same manner.
(§2) The binding ability of each of the RNA aptamers to the rec-cMet was examined in the same manner as in Example 5, except that the fluorinated RNA aptamers were used. The concentration of the rec-cMet was set to 60 nmol/L. With the time point at which the introduction of the rec-cMet to the chip was started being 0 seconds, introduction of a buffer was started 60 seconds later. As a comparative example, the same negative control as in Example 6 was used.

T1 sequence (P08581 25-307, stated change not applied, chain 1 of 2): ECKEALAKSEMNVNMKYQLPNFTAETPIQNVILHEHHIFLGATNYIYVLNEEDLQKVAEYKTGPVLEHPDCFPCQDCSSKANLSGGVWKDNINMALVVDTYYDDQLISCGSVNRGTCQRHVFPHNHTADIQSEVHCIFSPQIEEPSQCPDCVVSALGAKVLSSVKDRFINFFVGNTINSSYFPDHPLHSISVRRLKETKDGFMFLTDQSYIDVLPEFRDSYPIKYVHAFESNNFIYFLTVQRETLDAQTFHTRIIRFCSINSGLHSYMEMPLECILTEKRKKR
T1 sequence (P08581 308-932, stated change not applied, chain 2 of 2): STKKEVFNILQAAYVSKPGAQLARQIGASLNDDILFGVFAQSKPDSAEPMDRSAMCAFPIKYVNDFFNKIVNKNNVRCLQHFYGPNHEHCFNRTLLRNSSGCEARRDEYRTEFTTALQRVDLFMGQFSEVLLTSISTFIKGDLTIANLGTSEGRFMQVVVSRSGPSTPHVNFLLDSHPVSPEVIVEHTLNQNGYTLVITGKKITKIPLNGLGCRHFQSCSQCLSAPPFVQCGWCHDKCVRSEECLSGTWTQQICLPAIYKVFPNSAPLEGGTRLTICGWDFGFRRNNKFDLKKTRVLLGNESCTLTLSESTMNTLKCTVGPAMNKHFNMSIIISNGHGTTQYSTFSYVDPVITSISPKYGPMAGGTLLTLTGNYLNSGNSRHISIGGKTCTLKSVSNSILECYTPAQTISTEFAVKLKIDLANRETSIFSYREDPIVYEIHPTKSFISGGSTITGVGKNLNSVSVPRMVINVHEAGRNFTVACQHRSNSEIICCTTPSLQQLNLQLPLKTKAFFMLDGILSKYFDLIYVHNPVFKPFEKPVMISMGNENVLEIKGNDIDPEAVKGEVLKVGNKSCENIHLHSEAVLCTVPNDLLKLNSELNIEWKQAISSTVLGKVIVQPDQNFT

Binding result, binds:
B1, B2, B3, B4, B5, B6, B7, B8, B9, B10, B11, B12, B13, B14, B15, B16, B17, B18, B19, B20, B21, B22, B23, B24, B25, B26, B27, B28, B29, B30, B31, B32, B33, B34, B35

molecular target: T1, rec-cMet (Recombinant Human HGF …); assay: SPR; rec-cMet 100 nM; details: tags: C-terminal HIEGRMD linker, human IgG Fc (100-330), 6xHis; R&D Systems; chain copies: 2 (inferred, Fc chimera)
Description: as §1
as §2, with “the above” for “the fluorinated”, “to 100” for “to 60”, “later.” for “later. As a comparative example, the same negative control as in Example 6 was used.”

Binding result, binds:
B36, B37
